Residue numbers refer to the chain shown, from its start.
B1: IL6RPMP103A4 (VHH)
VHH: EVQLVESGGGLVQPGGSLRLSCAASGSIFSINTMGWYRQVPGKQRELVATVRSGSITNYADSVQDRFTITRDIDENTVYLQMNSLKPEDTAVYYCLTRASVPGRGYQDYWGQGTQVTVSS
B2: IL6RPMP101H6 (VHH)
VHH: EMQLVESGGGLVQAGGSLRLSCTASGRTFTDYDMGWFRQAPGKEREVVAIIDTNGDNTLTVGSVKGRFAISSDNAKNTVYLQMNSLLPEDTAVYTCAAGAWSALRRSVANYWGQGTQVTVSS
B3: IL6RPMP101C2 (VHH)
VHH: B2 VHH with M2V, T30S, V47C, T60I, A100V, A103S, R106H, S107T, V108A
B4: IL6RPMP101A5 (VHH)
VHH: B2 VHH with M2V, T30S, V47C, T60I, A100V, A103S, R106H, S107T, V108A
B5: IL6RPMP108D10 (VHH)
VHH: B2 VHH with M2V, L11S, T30S, V47C, I50V, S72R, A103S, R106S, S107T, V108A
B6: IL6RPMP108D1 (VHH)
VHH: B2 VHH with M2V, T30S, V47C, I50V, S72R, A103S, R106S, S107T, V108A, Q117K
B7: IL6RPMP101D1 (VHH)
VHH: B2 VHH with M2V, T30S, V47C, T60I, A100V, A103S, R106H, S107T, V108A
B8: IL6RPMP108F7 (VHH)
VHH: B2 VHH with M2V, T30S, V47C, I50V, S72R, A103S, R106S, S107T, V108A
B9: IL6RPMP107H2 (VHH)
VHH: KVQLVESGGGLVQPGGSLRLSCAASGFTFSSYAMSWVRRAPGKGLEWVSAINSDGTGSSYAPFVTGRFTASRDNAKNTLYLQMNSLKPEDTAVYYCTNSNRYDYADFSAVRGQGTQVTVSS
B10: IL6RPMP101D2 (VHH)
VHH: EVQMVESGGGLVQAGGSLRLSCAASGFAFDDYAIGWFRQAPGKEREGVSSISSSNGNTYYADSVRGRFTISSDNAKNTVYLQMNSLKPEDAGVYYCAAIWGIFFNEKMPVGAYDYWGQGTQVTVSS
B11: IL6RPMP101G4 (VHH)
VHH: B10 VHH with M4L, A91T
B12: IL6RPMP101H3 (VHH)
VHH: B10 VHH with M4L, A91T
B13: IL6RPMP101F1 (VHH)
VHH: B10 VHH with M4L, A91T
B14: IL6RPMP105E11 (VHH)
VHH: B10 VHH with M4L, S85G, A91T
B15: IL6RPMP101E1 (VHH)
VHH: B10 VHH with M4L, A91T
B16: IL6RPMP101F3 (VHH)
VHH: B10 VHH with M4L, A91T
B17: IL6RPMP105B8 (VHH)
VHH: B10 VHH with M4L, Q13R, A91T
B18: IL6RPMP120C11 (VHH)
VHH: EVQLVESGGGLVQAGGSLSLSCATSGRTISDDTMAWFRQAPGKEREFVATITFSGARTHYSDSVRDRFTISRDNAKNTVYLQMNSLKSEDTAVYYCAASTKYYSSTYNYIHPAFYDIWGQGTQVTVSS
B19: IL6RPMP120B7 (VHH)
VHH: B18 VHH
B20: IL6RPMP100A6 (VHH)
VHH: EVQLVESGGGLVQAGDSLRLSCLASGRSFKDDAMGWFRQAPGKEREFVSGIDWRGNIVDAESVKGRFTISRENAKNTLYLQMNHLKPEDTAVYYCAASSVFSDLRYRKNPKYWGQGTQVTVSS
B21: IL6RPMP108D2 (VHH)
VHH: EVQLVESGGGLVQAGGSLRLSCAASGFTFDDYDIGWFRQAPGKEREGVSGISSSDGNTYYADSVKGRFTISSDNAKNTVYLQMNSLKPEDTAVYYCAAEPPDSSWYLDGSPEFFKYWGQGTQVTVSS
B22: IL6RPMP106B2 (VHH)
VHH: EVQLVESGGGLVQAGGSLRLSCAASGSIFRINAMGWYRQAPGKQRELVAAAISGGSTNYADFVKGRFTISRDNAKNTVYLQMNSLKPEDTAVYYCNALVVSHNYSDYVPFPDDYWGQGTQVTVSS
B23: IL6RPMP100A10 (VHH)
VHH: EVQLVESGGGLVQAGGSLRLSCAASGRGFSPYTMGWFRQAPGKERVFVAGISWSTGIAHYTDSVKGRFTISRDNAKNTGSLQMNSLKPEDTAVYYCAVVQTTKGNYDYWGQGTQVTVSS
B24: IL6RPMP101A4 (VHH)
VHH: EVQLVESGGGTVQAGGSLKLSCAASGRTFTNYAMGWFRQAPGKEREFVAAIAYATHFADSVKGRFTISRGNAKNTVYLQMNSLKPEDAAVYYCAADLSLSKMVSKITSDMDYWGKGTLVTVSS
B25: IL6RPMP107H5 (VHH)
VHH: EVPLVESGGGLVQAGGSLNLSCNASGDIGSINAMGWYRQAPGQQREWVAVITDTDSTIYPDSVKGRFAISRDGAKNTVHLRMSSLKPEDTAVYYCNAYQAGWGDYWGQGTQVTVSS
B26: IL6RPMP119A10 (VHH)
VHH: EVQLVESGGGLVQPGGSLRLSCAASKSIFDINAMYWHRQAPGKQRESVASITSGGMRNYADSVKDRFTISKDNAKNTVYLQMNGLKPDDTAVYYCGLGRYEGGVWRDYWGQGTQVTVSS

How the values were obtained:
[1] = target: soluble IL-6R in cynomolgous plasma (cynomolgus monkey, UniProt A0A2K5WN54); test: ELISA 2, periplasmic extract; competitor IL-6; cyno plasma
Description: (§1) In this ELISA, plasma was used as a source of native soluble IL-6R. By this assay, we aimed to confirm the alphascreen results and to get a view on the cross-reactivity of the clones towards cynomolgous IL-6R. Human plasma (ELISA 1 and ELISA 3) or cynomolgous plasma (ELISA 2) were pre-incubated with a dilution of the periplasmic extract of the clones together with human IL-6 (50 ng/mL). Subsequently, plasma soluble IL-6R was captured on a B-N12 coated plate and bound IL-6 was detected using anti-IL-6 antibody BAF206 and streptavidin-HRP (ELISA 1 and ELISA 2). The ELISA signal dropped when the Nanobody clone could compete with IL-6 for binding to soluble IL-6R. ELISA 3 was a parallel ELISA in which the detection antibody was replaced by anti-IL-6R antibody BAF227 to exclude false positive competitors, which actually compete with B-N12 (e.g. family 2). Depicted in Table C-5 is the ratio of the OD450 value of the test sample versus the blank OD450 (mock sample). Clones were ordered based on ELISA 1 data.

[2] = target: T1, native soluble IL-6R in human plasma (human, UniProt P08887); test: ELISA 1, periplasmic extract; competitor IL-6; human plasma
Description: as §1

[3] = target: T1, native soluble IL-6R in human plasma; test: ELISA 3, periplasmic extract; competitor BN-12; human plasma
Description: as §1

Binder | OD450 ratio sample/blank [1] | OD450 ratio sample/blank [2] | OD450 ratio sample/blank [3]
B1 | 0.916 | 1.04 | 1.03
B2 | 0.713 | 0.788 | 0.954
B3 | 1.03 | 1.04 | 0.952
B4 | 0.736 | 1.03 | 0.95
B5 | 0.761 | 0.961 | 1.03
B6 | 0.79 | 0.87 | 1.04
B7 | 0.79 | 0.812 | 0.928
B8 | 0.8 | 1.05 | 1.02
B9 | 0.6 | 0.865 | 0.962
B10 | 0.822 | 0.124 | 0.977
B11 | 0.815 | 0.796 | 1.02
B12 | 0.859 | 0.772 | 0.954
B13 | 0.829 | 0.754 | 0.957
B14 | 0.691 | 0.679 | 0.971
B15 | 0.805 | 0.716 | 0.947
B16 | 0.822 | 0.758 | 0.984
B17 | 0.816 | 0.808 | 1.03
B18 | 0.296 | 0.673 | 0.988
B19 | 0.299 | 0.714 | 1.03
B20 | 0.722 | 0.948 | 0.923
B21 | 0.345 | 0.0624 | 0.916
B22 | 1.02 | 0.99 | 0.984
B23 | 0.189 | 0.748 | 0.97
B24 | 0.713 | 0.792 | 0.99
B25 | 0.997 | 0.901 | 1.03
B26 | 0.249 | 0.877 | 0.989

Source: patent US10618964B2, “Nanobody against IL-6R” (Ablynx N.V., dated 2020)
